We go through one molecule from patent US20250313648A1, “Binders of Chondroitin Sulfate Proteoglycan (CSPG4) Polypeptides” (Regents of the University of Minnesota, priority 2021, published 2025).

Assay [1] concerns the target T1, CSPG4 (Homo sapiens, UniProt Q6UVK1).
T1 construct: screening against CSPG4 wild type and knockout cell lysates via western blot and cell staining via immunofluorescence; endogenous in cells; host or cells: HEY, ES-2 and A2780 human ovarian cancer cell lines (parent/mock cells, with CSPG4-CRISPR knockouts as negative control)
The assay is described as follows: Specificity of antibody by western blot of CSPG4 wild type and knockout cell lysates and immunofluorescence cell staining. The class given is binding. Conditions: western blot of mock and CSPG4-CRISPR cell lines; immunofluorescence of HEY parent cells. The protocol: FIGS. 1A-1D. Antibody 7H5A2 targets CSPG4. FIG. 1A) Amino acid sequence of recombinant protein target used to generate antibody 7H5A2 (SEQ ID NO:34). Black text denotes CSPG4 region (SEQ ID NO:33), the lighter gray text corresponds to human FC sequence for protein purification. […]) Western blot with CSPG4 antibodies 763.74 (FIG. 1B) and 7H5A2 (FIG. 1C). Cells are harvested in lysis buffer and 40 μg protein was loaded in each well from the indicated mock and CSPG4-CRISPR cell lines. Alpha-tubulin is included as a loading control. FIG. 1D) Immunofluorescence staining of HEY parent cells with antibody 7H5A2. Red bar=10 μm. Magnification 600×.
Western blot: Western blots were performed using standard methods as described previously by Yang, et al., Cancer Res. 69(19):7538-47 (2009). […]
Generation of novel CSPG4 antibody: CSPG4-specific mouse monoclonal antibody 7H5A2 was generated by Promab Biotechnologies Inc (Richmond, CA) by injection of a recombinant CSPG4 protein immunogen corresponding to aa 1538-2221 of the CSPG4 core protein extracellular domain, expressed and purified from a eukaryotic expression system (see FIG. 1A). The specificity of the antibody was determined by screening against CSPG4 wild type and knockout cell lysates via western blot and cell staining via immunofluorescence (see FIGS. 1B and 1C). […]

Assay [2] has as its system FAK activation and ZEB1 expression in EOC cells. The assay can be described thus: Western blot for pFAK, FAK and ZEB1 in EOC cells plated in 1% methylcellulose with antibody. The settings on record: 50 μg/ml antibody vs normal mouse IgG1, suspension culture 24 hours, all three cell lines. In kind it is cell-based, human. The protocol: (§1) FIGS. 10A-10D. Anti-CSPG4 antibody 7H5A2 inhibits Zeb1 expression and FAK activation, cell invasion and spheroid formation. FIG. 10A) Western blot for pFAK, FAK, and ZEB1 in EOC cells plated in 1% methylcellulose in the presence of 50 μg/ml normal mouse IgG1 (nmIgG1) or anti-CSPG4 antibody 7H5A2 cultured in suspension for 24 hours. FIG. 10B) Invasion assay using HEY cells pre-incubated with control (nm IgG1) or anti-CSPG4 (763.74 and 7H5A2) antibodies at 50 μg/ml for 2 hours and then plated in invasion chambers in the presence of the antibody in the top chamber only for 24 hours. Bars represent the total number of invading cells counted in five random fields/well from duplicate wells, +/−S.D. P values determined by student's t-test with Welch's correction. n=6 from 3 separate experiments. FIG. 10C) Cell growth assay using EOC cells plated in the presence of the indicated antibodies at 50 μg/ml in 1% methylcellulose for 7 days (HEY) or 14 days (A2780 and ES-2). Cells were collected from methylcellulose culture at those time points, and re-plated overnight in normal growth media in tissue culture plates. The following day all cells were collected from each well and counted. P values determined by student's t-test with Welch's correction, comparing live cell numbers (determined by trypan blue exclusion) from each condition, n=4. […]

The subject of assay [3] is HEY cells. The assay is described as follows: Matrigel invasion assay with antibody pre-incubation. The class given is cell-based, human. Conditions: 50 μg/ml antibody, 2 hours pre-incubation, 24 hours, inhibition greater than with antibody 763.74. The protocol:
as §1

Assay [4] relates to EOC cells (HEY, A2780, ES-2). The assay can be described thus: Spheroid formation / cell growth assay in 1% methylcellulose with antibody. The class given is cell-based, human. The settings on record: CSPG4 expressing mock transfected EOC cells, 50 μg/ml antibody. The protocol: as §1

T1 sequence (Q6UVK1 30-2322): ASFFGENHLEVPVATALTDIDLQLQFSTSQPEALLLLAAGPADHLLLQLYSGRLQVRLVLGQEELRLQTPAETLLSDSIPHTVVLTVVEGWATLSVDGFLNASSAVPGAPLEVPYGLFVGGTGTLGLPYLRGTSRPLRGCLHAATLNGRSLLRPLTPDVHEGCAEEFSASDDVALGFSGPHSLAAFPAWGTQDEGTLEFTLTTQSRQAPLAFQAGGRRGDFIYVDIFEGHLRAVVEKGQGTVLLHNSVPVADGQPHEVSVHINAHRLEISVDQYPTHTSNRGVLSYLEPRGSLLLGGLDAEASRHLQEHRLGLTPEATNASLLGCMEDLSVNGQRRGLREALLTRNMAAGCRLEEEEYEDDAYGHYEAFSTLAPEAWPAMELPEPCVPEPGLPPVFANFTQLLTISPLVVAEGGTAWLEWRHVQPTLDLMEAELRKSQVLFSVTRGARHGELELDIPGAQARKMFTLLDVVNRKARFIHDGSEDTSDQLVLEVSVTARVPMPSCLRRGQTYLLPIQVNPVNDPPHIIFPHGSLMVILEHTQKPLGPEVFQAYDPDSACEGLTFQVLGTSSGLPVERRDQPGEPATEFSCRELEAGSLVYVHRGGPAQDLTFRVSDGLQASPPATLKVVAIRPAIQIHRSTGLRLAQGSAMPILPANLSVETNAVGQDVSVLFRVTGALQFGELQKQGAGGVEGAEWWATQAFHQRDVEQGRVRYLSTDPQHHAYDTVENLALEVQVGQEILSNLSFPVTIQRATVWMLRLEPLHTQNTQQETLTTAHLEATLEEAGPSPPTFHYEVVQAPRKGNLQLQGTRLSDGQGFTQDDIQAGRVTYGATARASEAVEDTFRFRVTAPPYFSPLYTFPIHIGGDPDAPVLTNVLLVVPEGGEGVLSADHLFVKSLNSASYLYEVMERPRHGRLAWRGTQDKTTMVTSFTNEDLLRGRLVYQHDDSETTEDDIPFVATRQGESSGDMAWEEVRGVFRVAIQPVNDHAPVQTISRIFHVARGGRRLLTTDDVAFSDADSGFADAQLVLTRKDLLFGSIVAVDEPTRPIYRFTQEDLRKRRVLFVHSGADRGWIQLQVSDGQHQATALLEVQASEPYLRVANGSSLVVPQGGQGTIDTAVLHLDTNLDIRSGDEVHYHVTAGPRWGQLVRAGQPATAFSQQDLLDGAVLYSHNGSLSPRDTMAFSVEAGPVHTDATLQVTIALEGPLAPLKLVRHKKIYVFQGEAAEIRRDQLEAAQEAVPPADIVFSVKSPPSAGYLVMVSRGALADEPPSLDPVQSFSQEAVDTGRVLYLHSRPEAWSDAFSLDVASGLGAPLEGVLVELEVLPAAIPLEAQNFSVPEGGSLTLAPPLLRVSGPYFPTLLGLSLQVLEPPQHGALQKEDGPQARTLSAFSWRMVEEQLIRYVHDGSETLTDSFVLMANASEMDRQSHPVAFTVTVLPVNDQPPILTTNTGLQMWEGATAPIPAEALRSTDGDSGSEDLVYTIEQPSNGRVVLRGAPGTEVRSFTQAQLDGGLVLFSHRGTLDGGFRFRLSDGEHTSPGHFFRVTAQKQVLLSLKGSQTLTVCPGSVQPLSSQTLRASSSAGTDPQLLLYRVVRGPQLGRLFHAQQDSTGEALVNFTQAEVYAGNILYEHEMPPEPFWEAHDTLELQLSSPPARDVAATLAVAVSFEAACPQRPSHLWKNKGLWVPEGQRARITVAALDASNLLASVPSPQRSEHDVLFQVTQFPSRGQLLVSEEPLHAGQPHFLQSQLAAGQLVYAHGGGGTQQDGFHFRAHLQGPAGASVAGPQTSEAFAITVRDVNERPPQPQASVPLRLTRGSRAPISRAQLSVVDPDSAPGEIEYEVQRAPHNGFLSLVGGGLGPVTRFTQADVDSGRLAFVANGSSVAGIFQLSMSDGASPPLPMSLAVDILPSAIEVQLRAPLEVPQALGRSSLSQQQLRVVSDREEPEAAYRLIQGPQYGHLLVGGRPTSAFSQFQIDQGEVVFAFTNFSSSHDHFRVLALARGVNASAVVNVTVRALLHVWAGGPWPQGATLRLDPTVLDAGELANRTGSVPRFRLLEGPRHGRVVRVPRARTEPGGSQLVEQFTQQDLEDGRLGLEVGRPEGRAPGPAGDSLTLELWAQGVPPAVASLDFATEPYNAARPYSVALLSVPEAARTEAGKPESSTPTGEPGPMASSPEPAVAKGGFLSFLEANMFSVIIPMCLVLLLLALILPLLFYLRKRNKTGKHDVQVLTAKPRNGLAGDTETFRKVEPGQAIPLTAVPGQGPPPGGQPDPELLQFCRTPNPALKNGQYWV

B1: 7H5A2: CSPG4-specific mouse monoclonal antibody, isotype IgG1; heavy chain variable SEQ ID NO:8, light chain variable SEQ ID NO:16 (antibody, V domains shown)
VH: QVQLQQSGAELVRPGSSVKISCKASGFAFSNYWMNWVKQRPGQGLEWIGQIFPGDGDTNYNGKFKGKATLTADKSSSTAYMQLISLTSEDSAVYFCVRESDWGRGTTLTVSS
VL: DIQMTQTTSSLSASLGDRVTISCSASQGINNYLNWYQQTPDGTVKLLIFYTSSLQSGVPSRFSGSGSGTDYSLTISNLEPEDIATYYCQQYSKLPFTFGSGTKLEIKR
Regarding B1, the “recognition of CSPG4 on the cell surface” value in assay [1] is “specifically recognizes CSPG4 on the cell surface”. Also, in assay [2], the ZEB1 expression entry is “inhibited” and the “activation of FAK” value was “inhibited”. In addition, in assay [3], the EOC invasion entry is recorded as “significantly inhibited”. The spheroid formation result in assay [4] (7 days (HEY) or 14 days (A2780 and ES-2)) is “significantly inhibited”. In assay [4] (live cell numbers by trypan blue exclusion), the EOC cell survival entry is “significantly inhibited”.
